B1: murine GATA2 finger region containing the NF and CF domains (289 aa to 480 aa), wild type, MBP-fused or GST-fused (domain or fragment)
chain: not shown
notes: GATA2, murine, finger region containing the NF and CF domains, residues 289-480; Two differently tagged copies of the same stretch were used; Each copy carries ONE carrier: MBP-fused (bait on amylose beads) or GST-fused (prey in a1, bait on glutathione beads in a2); They are kept as one molecule because the protein is tested against itself; also called G2^WT; MBP-fused G2^WT

Key:
[1] = target: the molecule itself; assay: pull-down; recombinant MBP-fused bait mixed with GST-fused prey in binding buffer at room temperature; complexes purified with amylose magnetic beads; immunoblot with anti-GST and anti-MBP
[2] = target: B1; assay: as above; details: both partners purified

Binder: B1
- binding result [1]: binds

B2: murine GATA2 finger region (289 aa to 480 aa) with R398W, GST-fused or MBP-fused (domain or fragment)
chain: not shown
notes: GATA2, murine, finger region containing the NF and CF domains, residues 289-480, with the patient mutation R398W; Each copy carries ONE carrier: GST-fused in a1 (prey), MBP-fused in a2 (prey); The mutation corresponds to a human germline GATA2 mutation found in patients; also called G2^R398W; GST-fused G2^R398W
- binding result [2]: binds

B3: murine GATA2 finger region (289 aa to 480 aa) with T354M, GST-fused or MBP-fused (domain or fragment)
chain: not shown
notes: GATA2, murine, finger region containing the NF and CF domains, residues 289-480, with the patient mutation T354M; Each copy carries ONE carrier: GST-fused in a1 (prey), MBP-fused in a2 (prey); The mutation is a germline GATA2 mutation found in patients; also called G2^T354M; GST-fused G2^T354M
- binding result [2]: binds
